Assay [1] addresses T1, Region III of EGFR expressed on HEK293T cells (human, UniProt P00533).
T1 construct: also called HEK293T EGFR-III cells; stably transformed cell line 293T overexpressing EGFR III region protein
The assay is described as follows: flow cytometry on HEK293T cells expressing EGFR region III, anti-human IgG PE, MFI, curve fit; unit from the concentration axis and paragraph 62 [table]. As to the method:
HEK293T cells that express Region III of EGFR (i.e., HEK293T […] cells) were plated in a 96-well plate with 3×10⁵ cells/well, and then HEK293T […] cells were incubated with gradient diluted VHH-IgG4 antibody. After incubation for half an hour, anti-human IgG PE (Jackson Immuno Research, Code: 109-117-008, Lot:145501) as the secondary antibody for detection was added for incubation, and then CytoFLEX flow cytometer was used for detection. The EC50 of the antibody was calculated by curve fitting with Graphprism8.0 software. Isotype 1 in the figure is a negative control, and its amino acid sequence is shown as SEQ ID NO: 2 in CN106046152A.

Assay [2] addresses T2, EGFR on SKOV3 and Aspc-1 tumor cells (human, UniProt P00533).
T2 construct: endogenous, on the cell surface; the cell line is named under assay; also called tumor cell EGFR
The assay is described as follows: flow cytometry on SKOV3 tumor cells, anti-human IgG PE, MFI, curve fit; unit from the concentration axis and paragraph 62 [table]. The method, then:
Two kinds of tumor cells, SKOV3 and Aspc-1, expressing EGFR were respectively plated in 96 well plates, with 3×10⁵ cells per well, and then the tumor cells were incubated with gradient diluted VHH-IgG4 antibody. After incubation on ice for half an hour, anti human IgG PE (Jackson Immuno Research, Code: 109-117-008, Lot:145501) was added for incubation, and then CytoFLEX flow cytometry was used for detection. The EC50 of the antibody was calculated by curve fitting.

For assay [3], the target named is T3, EGFR-D1D2 (L25-A310, P00533-1 (uniprot)) his tag antigen (human, UniProt P00533 25-310).
T3 construct: range 25-310; also called I+II domain protein; EGFR-D1D2 protein; not shown: His tag
The assay is described as follows: ELISA: EGFR-D1D2 his tag antigen coated at 0.5 µg/mL, antibody at 2000, 200, 20, 2 nM, HRP goat anti-human IgG Fc, OD450. As to the method:
(2) Protein Binding Epitope Analysis: ELISA was used to determine the binding of VHH-IgG4 antibody to each domain of EGFR extracellular protein. Briefly, EGFR his tag protein, and EGFR-V3-his tag antigen protein were diluted to 1 μg/mL, EGFR-D1D2 (L25-A310, P00533-1 (uniprot)), and EGFR-D4 (F481-S645, P00533-1 (uniprot)) his tag antigen were diluted to 0.5 μg/mL, and each well of an ELISA plate was coated with […] antigen and incubated overnight at 4° C. The next day, the plates were washed twice with PBST (added with 0.5% TWEEN-20), then blocked with 3% BSA at 37° C. for 1.5 h, and then washed twice with PBST. Then, the antibody to be tested was diluted to 50 nM, 5 nM, 0.5 nM, 0.05 nM, and added to the wells coated with EGFR his tag protein or EGFR-V3-his tag antigen at 100 µL/well, respectively. The antibody was diluted to 2000 nM, 200 nM, 20 nM, 2 nM, and added to the wells coated with EGFR his tag protein or EGFR-V3-his tag antigen at 100 µL/well, respectively. The ELISA plates were incubated at 37° C. for 1 h. The plates were then washed three times with PBST, and then 100 μL HRP labeled Goat anti human IgG Fc antibody (1:10000, Bethyl) was added into each well, and incubated at 37° C. for another 40 min. After washing the plates four times with PBST, 100 μL of TMB substrate was added to each well, and the reaction was allowed to proceed for 3-5 min. The reaction was stopped by adding 100 μL of 3N hydrochloric acid per well. After stopping the reaction, the optical density at 450/650 nm was measured using a Tecan microplate reader.

In assay [4] the target is T4, human EGFR.His antigen (Acro, Cat #EGR-H522a) (human, UniProt P00533 25-645).
T4 construct: extracellular domain; Bought protein; also called EGFR his tag protein; full-length EGFR extracellular domain protein; not shown: His tag
The assay is described as follows: SPR, antibody captured on protein A, EGFR.His in flow. As to the method: The binding kinetics and affinity of candidate antibody to human EGFR.His antigen were determined using surface plasmon resonance (SPR). The purified antibody was flowed through the sensor chips pre-immobilized with protein A, and the antibody was captured by protein A. Then five different concentrations of EGFR.His protein were used as the mobile phase, and the binding time and dissociation time were […], respectively. The binding rate (kon), dissociation rate (koff), and equilibrium constant (kD) were analyzed using Biacore Evaluation Software 2.0 (GE). EC225, an antibody that binds to region III of human EGFR, was selected as a positive control (sequence source https.//go.drugbank.com/drugs/DB00002).
(In general: Surface plasmon resonance follows binding to a sensor surface in real time, without labels.)

Assay [5] addresses T5, Mouse EGFR Protein, His Tag (Acro, Cat #EGR-M5224) (mouse, UniProt Q01279 25-647).
T5 construct: extracellular domain; Bought protein; not shown: His tag
The assay can be described thus: ELISA, coated antigen 1 ug/mL, antibody 50 nM. The method, then:
(§1) ELISA was used to identify the binding of VHH-IgG4 antibodies to the extracellular domains of mouse EGFR, monkey EGFR, and human EGFR proteins. The detection steps were as follows: Mouse EGFR Protein, His Tag (Acro, Cat #EGR-M5224) and Rhesus macaque EGFR Protein, His Tag (Acro, Cat #EGR-C52H1) were diluted to 1 μg/mL with phosphate buffer, and 100 μL of each dilution was added to a 96-well ELISA plate and coated overnight at 4° C. The next day, the plates were washed twice with PBST (containing 0.5% TWEEN-20) and then blocked with 3% BSA at 37° C. for 1.5 h, followed by two washes with PBST. VHH-IgG4 antibodies were diluted to 50 nM, and 100 μL of the dilution was added to each well and incubated at 37° C. for 1 h. The plates were then washed three times with PBST, and 100 μL of HRP-labeled goat anti-human IgG Fc antibody (1:10000, Bethyl) was added to each well and incubated at 37° C. for another 40 min. After washing the plates four times with PBST, 100 μL of TMB substrate was added to each well, and the reaction was allowed to proceed for 3-5 min. The reaction was stopped by adding 100 μL of 3N hydrochloric acid per well. After stopping the reaction, the optical density at 450/650 nm was measured using a Tecan microplate reader.
A general note: In an ELISA, binding on a coated surface is turned into a signal by an enzyme label.

The target of assay [6] is T6, Rhesus macaque EGFR Protein, His Tag (Acro, Cat #EGR-C52H1) (rhesus macaque, UniProt P55245 25-645).
T6 construct: extracellular domain; Bought protein; also called Monkey EGFR; not shown: His tag
The assay is described as follows: ELISA, coated antigen 1 ug/mL, antibody 50 nM. As to the method: as §1

B1: E008 VHH-IgG4 antibody (antibody, V domains shown)
VH: EVQVVESGGGLVQSGGSLTLSCTSSGLPLLDYAIGWFRQAPGKEREAVSAISISEGSTYYTDSVRGRFTISRDNNKNKVYLRMDNLKPEDTAVYYCAADKTDIGFWLLVGGAGGGEVRYEYWGQGTQVTVSS
notes: VHH fused to IgG4 (VHH-IgG4), expressed in ExpiCHO, protein A purified; not shown: human IgG4 constant part from the pCDNA3.4-IgG4 vector
As a reminder, the EC50 is the concentration giving half of the maximal effect. Higher therefore signals weaker potency. The term Kd denotes the constant that tells how readily two partners part at equilibrium. A lower Kd goes with higher affinity. For orientation: koff means the first-order rate constant of dissociation. High values mean fast dissociation, low ones slow dissociation. The term kon denotes the second-order rate constant of association. A lower kon goes with slower complex formation. In turn, B1 yielded an EC50 in assay [1] of 0.18 nM. A half-maximal response in assay [2] (EC50) required 1.1 nM. Further, the binding result in assay [3] was “no binding (tested: 2000 nM)”. Also, in assay [4], binding was put at a Kd of 9.62 nM, the dissociation rate constant (koff) came out at 0.0148 s⁻¹ and the association rate constant (kon) was 1.53e+06 M⁻¹ s⁻¹. Besides, the OD450 in assay [5] turned out to be 0.72 OD450. For the same molecule, the OD450 in assay [6] is 3.68 OD450.

B2: E002 VHH-IgG4 antibody (antibody, V domains shown)
VH: QVQLVESGGGLVQAGGSLRLSCAASGFTFSDYAVSWYRQAPGKEREFVARITGTGETSRYEDSVKGRFAISRDNVKNTAYLQMNSLKPEDTAVYYCSIYHPPRDYWGQGTQVTVSS
notes: as for B1
B2 returned an EC50 in assay [1] of 0.095 nM. Further, in assay [2], the concentration giving a half-maximal response (EC50) is 2.3 nM. Besides, in assay [3], the binding result is on record as “no binding (tested: 2000 nM)”. Also, in assay [4], the dissociation constant (Kd) is 2.49 nM, the koff worked out at 0.000121 s⁻¹ and the on-rate (kon) turned out to be 48500 M⁻¹ s⁻¹. Moreover, the OD450 in assay [5] worked out at 2.73 OD450. In assay [6], this molecule showed an OD450 of 3.06 OD450.

B3: E005 VHH-IgG4 antibody (antibody, V domains shown)
VH: QVQLVESGGGLVQPGGSLRLSCEASGFAFSDYTMRWHRQAAGKELELVAYITSAGDIIKYANSVRGRFTISRDNAKNTLYLQMDSLKPEDTAVYRCNALVSASVRASDYWGQGTLVTVSS
notes: as for B1
In assay [1], B3 displayed an EC50 of 0.98 nM. The molecule further yielded an EC50 in assay [2] of 9.7 nM. Also, the binding result in assay [3] is “no binding (tested: 2000 nM)”. In assay [4], this molecule registered an equilibrium dissociation constant (Kd) of 2.86 nM, a koff of 4.67e-05 s⁻¹ and a kon of 16400 M⁻¹ s⁻¹. In addition, in assay [5], the OD450 was 3.33 OD450. The same molecule showed an OD450 in assay [6] of 3.19 OD450.

B4: E007 VHH-IgG4 antibody (antibody, V domains shown, not shown: a dimerising Fc or GST)
VH: EVQLVESGGGLVQPGGSLRLSCEASGFSFSDHTMRWHRQAAGKNLELVAYITPAGDIIKYADSVQGRFTISRDNAKNMLYLQMDSLRPDDTAVYRCNALVSAAVRASDYWGQGTQVTVSS
As for B4, the EC50 in assay [1] was 0.47 nM. In assay [2], this molecule displayed a 50% effective concentration (EC50) of 14 nM. In addition, the binding result in assay [3] is “no binding (tested: 2000 nM)”. In assay [4], this molecule yielded a Kd of 0.292 nM, a dissociation rate constant (koff) of 1.08e-05 s⁻¹ and an association rate constant (kon) of 37100 M⁻¹ s⁻¹. In assay [5], this molecule had an OD450 of 3.21 OD450. For the same molecule, the OD450 in assay [6] was 3.35 OD450.

B5: E004 VHH-IgG4 antibody (antibody, V domains shown, not shown: a dimerising Fc or GST)
VH: EVQLVESGGGLAQSGGSLRLACEASGFPFETYAMSWARQTPGNEPEWVAGIFPDGKHTAYAHSVKGRFTISRVNANNTVYLQMDSLKPEDTAVYYCAKDLPFFATPSFYIGYWGQGTLVTVSS
B5 had a 50% effective concentration (EC50) in assay [1] of 0.39 nM. Besides, in assay [3], the binding result is “no binding (tested: 2000 nM)”. In assay [4], this molecule displayed a dissociation constant Kd of 5.17 nM, a koff of 0.000776 s⁻¹ and an association rate constant (kon) of 150000 M⁻¹ s⁻¹. For the same molecule, the OD450 in assay [5] worked out at 3.37 OD450. In addition, the OD450 in assay [6] was determined as 3.64 OD450.

B6: E003 VHH-IgG4 antibody (antibody, V domains shown, not shown: a dimerising Fc or GST)
VH: QVQLVESGGGLVQPGGSLRLSCVASGGVFSSYAMGWYRQVPGKLRELVATITSGHSTTYADIVRGRFTISRDNTKNTVYLQMNRLEPDDTAVYYCNRSPYTPGNWGQGTLVTVSS
In assay [1], B6 returned an EC50 of 0.36 nM. In assay [2], this molecule had an EC50 of 6.5 nM. Besides, the binding result in assay [3] was “no binding (tested: 2000 nM)”. In addition, in assay [4], the Kd was 4.68 nM, the koff turned out to be 0.000133 s⁻¹ and the association rate constant (kon) amounted to 28400 M⁻¹ s⁻¹. The molecule also registered an OD450 in assay [5] of 2.8 OD450. The same molecule had an OD450 in assay [6] of 3.15 OD450.

Values taken from US20250215092A1 (ZHEJIANG NANOMAB TECHNOLOGY CENTER, published 2025).
